Reference: PMC10620413, “Dimeric Transmembrane Structure of the SARS-CoV-2 E Protein” (Communications Biology, 2023)

What was measured:
[1] = molecular target: SARS-CoV-2 E protein transmembrane domain E_(12–37) (SARS-CoV-2 (isolate Wuhan-Hu-1)); assay: SDS-PAGE
[2] = molecular target: the molecule itself; assay: SDS-PAGE

Molecule: SARS-CoV-2 E protein transmembrane domain E_(12–37) (domain or fragment)
- stoichiometry N [1]: 2

Molecule: SNAETGTLIVNSVLLFLAFVVFLLVTLAILTALRLSA (domain or fragment, not shown: MBP, N-terminal, cleaved) [SARS-CoV-2 E protein fragment E_(8–41)]
- stoichiometry N [2]: 2
